Measured values taken from article PMC3038869.

Target: Epidermal Growth Factor Receptor (EGFR), Drosophila, endogenous (Drosophila (endogenous in ovaries)) (UniProt P04412)
Assay: co-IP; ovarian lysates of wild-type females or females expressing D-CblL or RING-SH2^Drk in follicle cells, immunoprecipitated with mouse monoclonal anti-EGFR, 4°C; blotted with rabbit anti-EGFR and anti-Drk

Sequence of UniProt P04412 (P04412 31-1426): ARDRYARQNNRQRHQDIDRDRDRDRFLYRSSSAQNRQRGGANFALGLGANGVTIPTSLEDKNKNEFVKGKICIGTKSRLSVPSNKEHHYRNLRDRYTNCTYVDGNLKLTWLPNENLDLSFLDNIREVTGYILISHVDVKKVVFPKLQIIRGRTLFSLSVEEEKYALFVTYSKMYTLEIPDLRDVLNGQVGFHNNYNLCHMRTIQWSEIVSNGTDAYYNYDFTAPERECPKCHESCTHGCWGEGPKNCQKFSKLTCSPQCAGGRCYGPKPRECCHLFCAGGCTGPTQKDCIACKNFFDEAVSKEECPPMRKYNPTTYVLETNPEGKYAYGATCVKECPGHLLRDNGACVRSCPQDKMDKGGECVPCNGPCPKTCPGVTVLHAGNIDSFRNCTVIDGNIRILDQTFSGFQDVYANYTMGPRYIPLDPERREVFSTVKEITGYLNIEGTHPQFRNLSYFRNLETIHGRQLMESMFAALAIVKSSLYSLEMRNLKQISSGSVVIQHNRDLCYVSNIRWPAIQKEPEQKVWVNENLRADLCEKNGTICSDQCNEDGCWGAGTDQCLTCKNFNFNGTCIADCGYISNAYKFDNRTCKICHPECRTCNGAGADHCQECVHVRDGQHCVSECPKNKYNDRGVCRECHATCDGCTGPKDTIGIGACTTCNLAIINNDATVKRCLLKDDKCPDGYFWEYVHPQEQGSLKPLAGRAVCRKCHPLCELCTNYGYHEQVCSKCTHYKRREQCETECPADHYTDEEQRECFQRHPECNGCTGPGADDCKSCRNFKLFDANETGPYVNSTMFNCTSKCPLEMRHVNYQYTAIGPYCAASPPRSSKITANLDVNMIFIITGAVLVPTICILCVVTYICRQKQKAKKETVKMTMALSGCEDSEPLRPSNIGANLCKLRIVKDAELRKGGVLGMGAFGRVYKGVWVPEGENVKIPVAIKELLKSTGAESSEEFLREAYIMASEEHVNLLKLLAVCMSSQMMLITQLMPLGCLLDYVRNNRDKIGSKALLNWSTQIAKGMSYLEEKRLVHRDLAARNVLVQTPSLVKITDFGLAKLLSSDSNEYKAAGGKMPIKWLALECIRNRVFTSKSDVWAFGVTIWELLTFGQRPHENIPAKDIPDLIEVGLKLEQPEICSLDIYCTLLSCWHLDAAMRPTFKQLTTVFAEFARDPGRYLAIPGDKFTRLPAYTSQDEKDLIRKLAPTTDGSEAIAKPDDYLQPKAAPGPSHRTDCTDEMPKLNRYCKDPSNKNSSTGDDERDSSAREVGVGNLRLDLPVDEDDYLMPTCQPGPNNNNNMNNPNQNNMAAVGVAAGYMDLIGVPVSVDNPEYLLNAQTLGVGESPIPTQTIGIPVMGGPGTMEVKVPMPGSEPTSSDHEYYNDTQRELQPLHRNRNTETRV

Substance: RING-SH2^Drk, fusion of the RING finger domain of D-CblL and the SH2 domain of Drk (from UniProt Q08012 53-160)
- percent reduction of Drk in the EGFR complex: 40%
